How the values were obtained:
hiR2-FL-Q580A-T7 = biological target: T1, hiR2-FL-Q580A-T7 (human, UniProt Q6PJF5 1-856); test: FACS on MEF-DKO cells expressing the variant, 3 µg/ml antibody
T1 sequence: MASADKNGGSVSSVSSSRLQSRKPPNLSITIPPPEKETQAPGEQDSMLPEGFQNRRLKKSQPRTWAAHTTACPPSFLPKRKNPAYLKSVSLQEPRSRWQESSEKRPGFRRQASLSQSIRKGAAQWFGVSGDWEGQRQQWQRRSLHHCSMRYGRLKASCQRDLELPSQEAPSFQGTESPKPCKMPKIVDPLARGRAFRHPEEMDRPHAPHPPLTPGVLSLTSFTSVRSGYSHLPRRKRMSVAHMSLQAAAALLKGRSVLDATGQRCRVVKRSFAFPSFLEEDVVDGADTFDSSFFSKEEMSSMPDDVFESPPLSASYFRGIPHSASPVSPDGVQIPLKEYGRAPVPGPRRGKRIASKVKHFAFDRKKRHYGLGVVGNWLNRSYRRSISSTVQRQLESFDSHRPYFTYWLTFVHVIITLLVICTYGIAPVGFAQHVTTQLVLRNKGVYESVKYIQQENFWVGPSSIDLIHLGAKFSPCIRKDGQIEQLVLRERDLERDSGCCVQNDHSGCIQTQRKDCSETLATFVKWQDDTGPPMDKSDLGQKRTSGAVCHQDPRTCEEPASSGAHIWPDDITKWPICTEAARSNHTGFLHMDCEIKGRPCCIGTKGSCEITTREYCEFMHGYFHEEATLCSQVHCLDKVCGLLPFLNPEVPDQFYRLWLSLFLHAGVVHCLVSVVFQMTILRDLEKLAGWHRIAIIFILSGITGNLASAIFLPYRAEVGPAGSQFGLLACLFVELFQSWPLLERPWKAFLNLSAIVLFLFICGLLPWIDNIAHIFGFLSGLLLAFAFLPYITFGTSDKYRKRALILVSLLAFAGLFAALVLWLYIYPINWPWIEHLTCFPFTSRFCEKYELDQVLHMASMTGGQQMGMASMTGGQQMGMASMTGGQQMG
In short: (§1)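 Cells stained with purified antibody at 3 μg/ml for 1 h on ice, then with PE-conjugated goat anti-mouse IgG F(ab′)2 (1:100) for 1 h on ice in the dark. Binding read by flow cytometry; buffer-only staining as control.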

hiR2-FL-N584A-T7 = biological target: T2, hiR2-FL-N584A-T7 (human, UniProt Q6PJF5 1-856); test: as above
T2 sequence: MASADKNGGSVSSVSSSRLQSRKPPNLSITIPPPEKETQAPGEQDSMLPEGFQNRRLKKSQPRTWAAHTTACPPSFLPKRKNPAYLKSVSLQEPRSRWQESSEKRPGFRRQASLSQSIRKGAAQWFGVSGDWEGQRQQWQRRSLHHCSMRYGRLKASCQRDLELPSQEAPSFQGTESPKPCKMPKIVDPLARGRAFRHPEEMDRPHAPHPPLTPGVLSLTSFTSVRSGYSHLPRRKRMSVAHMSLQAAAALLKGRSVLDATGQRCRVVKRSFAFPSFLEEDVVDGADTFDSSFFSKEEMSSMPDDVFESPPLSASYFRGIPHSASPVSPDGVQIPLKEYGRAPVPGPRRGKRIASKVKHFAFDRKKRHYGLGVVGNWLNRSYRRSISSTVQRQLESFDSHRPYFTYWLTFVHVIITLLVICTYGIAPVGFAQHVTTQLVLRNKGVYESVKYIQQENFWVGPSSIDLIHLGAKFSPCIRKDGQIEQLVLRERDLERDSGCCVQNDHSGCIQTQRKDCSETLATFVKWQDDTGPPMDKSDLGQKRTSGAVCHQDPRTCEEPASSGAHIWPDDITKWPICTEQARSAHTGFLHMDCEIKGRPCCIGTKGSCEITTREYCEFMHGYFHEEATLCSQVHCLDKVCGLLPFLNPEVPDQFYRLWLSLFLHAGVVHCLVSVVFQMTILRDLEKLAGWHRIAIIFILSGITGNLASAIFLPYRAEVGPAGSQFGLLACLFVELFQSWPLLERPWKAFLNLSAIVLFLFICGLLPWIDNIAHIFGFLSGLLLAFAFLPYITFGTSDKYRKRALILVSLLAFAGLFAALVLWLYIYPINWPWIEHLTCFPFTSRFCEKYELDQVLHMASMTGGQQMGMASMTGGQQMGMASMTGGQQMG
In short: as §1

B1: antibody 3 (antibody, V domains shown)
VH: QVTLKESGPGILQPSQTLSLTCSFSGFSLTTFAMGIGWVRQPSGKGLEWLAHIWWDGEKYNNPVLKSRLTISKDTSKNQVFLRIANVDTPDTATYYCARISSIYYIIDNWGQGTSVTVSS
VL: DIVLTQSPATLSVTPGHSVSLSCRASQSISNNLHWYQKKSHESPRLLIKYVSQSISGIPSRFSGSGSGTDFTLSINSVETEDFGMYFCQQSYNWPLTFGAGTKLELK
notes: mouse IgG, kappa light chain; also called clone #3; purified antibody 3
hiR2-FL-Q580A-T7
  loss of binding vs wild type: ≥ 30%
hiR2-FL-N584A-T7
  loss of binding vs wild type: ≥ 30%

Source: US20240287172A1 (SCIRHOM, published 2024)
